From publication PMC10696552

How the values were obtained:
[1] = substrate: N[C@@H](Cc1c[nH]cn1)C(=O)O; assay: purified protein; conditions: co-substrate L-Cys
[2] = substrate: N[C@@H](CS)C(=O)O; assay: purified protein; conditions: co-substrate L-His; 23 °C
[3] = substrate: N[C@@H](Cc1c[nH]cn1)C(=O)O; assay: O2 consumption, NeoFoxy oxygen electrode; assay type: biochemical, Hydrogenimonas thermophila; conditions: co-substrate L-Cys, 23 °C
[4] = substrate: C[N+](C)(C)[C@@H](Cc1cnc[nH]1)C(=O)[O-]; assay: O2 consumption, NeoFoxy oxygen electrode; assay type: biochemical, Hydrogenimonas thermophila; conditions: co-substrate L-Cys, 23 °C
[5] = substrate: N[C@@H](CS)C(=O)O; assay: O2 consumption, NeoFoxy oxygen electrode; assay type: biochemical, Hydrogenimonas thermophila; conditions: co-substrate L-His, 23 °C

B1: OvoATh2 (Hydrogenimonas thermophila; Y399F) (protein)
chain: NKILLRPLLLKQKNPENLRQLIKKSFHRTFDTFESLFSMLRNDEAFYNRPEPLRHPHIFYFGHTAVFFINKLILSKIIDTRINAKMESIFAIGVDEMSWDDLNDDHYEWPSVEETRLYRNRVREVVDNLINTLPLELPITWDSPWWIILMGIEHERIHIETSSVLIRQTDISLVLPQPEWSKCNVSGKAPENELLFVPGGEIEIGKYKSDDYYGWDNEYGKHKTVIPDFKASKYLVSNGEFMEFVKDGGYENDLWWEEEGLAWRNFKKAKHPIFWIPFKNEYRYRTLTEIVDMPLDWPVDVNYHEAKAFCNWLSAKKGKPIRLPVEDEWYRLKEYCNVPDVSKWDEKAPANINLEHYASACPVTQFSFGNFYDVIGNVWQWTETPIYPFNGFKIHPIFDDFSTPTFDNRHNLIKGGSFISTGNEILASSRYAFRRHFFQHAGFRYVESSYKEKINSSGYESDTQVSQYCEFGWGDRYFGIENYPKRCAKICIEVTEGKPRKKALDVGCAIGRSTLELATSFESVTGLDFSARFIEMAERMRKDGSIRYTITTEGELVEYKEATLPKRLAKVVDRVEFWQADACNLKPIFTGYDLVFAGNLIDRLYDPAKFLNDIGKRINSGGMLILTSPYTWLEEFTPKQKWLGGFKQDGEPVKSIDGLKSHLKDSFKLIETRDIEFVIRETARKFQHSVAQMSIWEKI
[1]; 23 °C
  Km: 38.2 ± 2.6 µM
  kcat: 361.2 ± 5.9 min^–1
[2]
  Km: 575.2 ± 22.0 µM
  kcat: 361.2 ± 5.9 min^–1
  kcat/Km: 10500 M⁻¹ s⁻¹

B2: OvoATh2 (Hydrogenimonas thermophila; Y61F) (protein)
chain: NKILLRPLLLKQKNPENLRQLIKKSFHRTFDTFESLFSMLRNDEAFYNRPEPLRHPHIFFFGHTAVFFINKLILSKIIDTRINAKMESIFAIGVDEMSWDDLNDDHYEWPSVEETRLYRNRVREVVDNLINTLPLELPITWDSPWWIILMGIEHERIHIETSSVLIRQTDISLVLPQPEWSKCNVSGKAPENELLFVPGGEIEIGKYKSDDYYGWDNEYGKHKTVIPDFKASKYLVSNGEFMEFVKDGGYENDLWWEEEGLAWRNFKKAKHPIFWIPFKNEYRYRTLTEIVDMPLDWPVDVNYHEAKAFCNWLSAKKGKPIRLPVEDEWYRLKEYCNVPDVSKWDEKAPANINLEHYASACPVTQFSFGNFYDVIGNVWQWTETPIYPFNGFKIHPIYDDFSTPTFDNRHNLIKGGSFISTGNEILASSRYAFRRHFFQHAGFRYVESSYKEKINSSGYESDTQVSQYCEFGWGDRYFGIENYPKRCAKICIEVTEGKPRKKALDVGCAIGRSTLELATSFESVTGLDFSARFIEMAERMRKDGSIRYTITTEGELVEYKEATLPKRLAKVVDRVEFWQADACNLKPIFTGYDLVFAGNLIDRLYDPAKFLNDIGKRINSGGMLILTSPYTWLEEFTPKQKWLGGFKQDGEPVKSIDGLKSHLKDSFKLIETRDIEFVIRETARKFQHSVAQMSIWEKI
[1]
  Km: 50.9 ± 2.5 µM
  kcat: 23.4 ± 0.2 min^–1

B3: OvoATh2 (Hydrogenimonas thermophila; Y399F/Y61F) (protein)
chain: NKILLRPLLLKQKNPENLRQLIKKSFHRTFDTFESLFSMLRNDEAFYNRPEPLRHPHIFFFGHTAVFFINKLILSKIIDTRINAKMESIFAIGVDEMSWDDLNDDHYEWPSVEETRLYRNRVREVVDNLINTLPLELPITWDSPWWIILMGIEHERIHIETSSVLIRQTDISLVLPQPEWSKCNVSGKAPENELLFVPGGEIEIGKYKSDDYYGWDNEYGKHKTVIPDFKASKYLVSNGEFMEFVKDGGYENDLWWEEEGLAWRNFKKAKHPIFWIPFKNEYRYRTLTEIVDMPLDWPVDVNYHEAKAFCNWLSAKKGKPIRLPVEDEWYRLKEYCNVPDVSKWDEKAPANINLEHYASACPVTQFSFGNFYDVIGNVWQWTETPIYPFNGFKIHPIFDDFSTPTFDNRHNLIKGGSFISTGNEILASSRYAFRRHFFQHAGFRYVESSYKEKINSSGYESDTQVSQYCEFGWGDRYFGIENYPKRCAKICIEVTEGKPRKKALDVGCAIGRSTLELATSFESVTGLDFSARFIEMAERMRKDGSIRYTITTEGELVEYKEATLPKRLAKVVDRVEFWQADACNLKPIFTGYDLVFAGNLIDRLYDPAKFLNDIGKRINSGGMLILTSPYTWLEEFTPKQKWLGGFKQDGEPVKSIDGLKSHLKDSFKLIETRDIEFVIRETARKFQHSVAQMSIWEKI
[1]
  Km: 31.3 ± 4.0 µM
  kcat: 14.8 ± 0.3 min^–1

B4: OvoATh2 (Hydrogenimonas thermophila) (protein)
chain: NKILLRPLLLKQKNPENLRQLIKKSFHRTFDTFESLFSMLRNDEAFYNRPEPLRHPHIFYFGHTAVFFINKLILSKIIDTRINAKMESIFAIGVDEMSWDDLNDDHYEWPSVEETRLYRNRVREVVDNLINTLPLELPITWDSPWWIILMGIEHERIHIETSSVLIRQTDISLVLPQPEWSKCNVSGKAPENELLFVPGGEIEIGKYKSDDYYGWDNEYGKHKTVIPDFKASKYLVSNGEFMEFVKDGGYENDLWWEEEGLAWRNFKKAKHPIFWIPFKNEYRYRTLTEIVDMPLDWPVDVNYHEAKAFCNWLSAKKGKPIRLPVEDEWYRLKEYCNVPDVSKWDEKAPANINLEHYASACPVTQFSFGNFYDVIGNVWQWTETPIYPFNGFKIHPIYDDFSTPTFDNRHNLIKGGSFISTGNEILASSRYAFRRHFFQHAGFRYVESSYKEKINSSGYESDTQVSQYCEFGWGDRYFGIENYPKRCAKICIEVTEGKPRKKALDVGCAIGRSTLELATSFESVTGLDFSARFIEMAERMRKDGSIRYTITTEGELVEYKEATLPKRLAKVVDRVEFWQADACNLKPIFTGYDLVFAGNLIDRLYDPAKFLNDIGKRINSGGMLILTSPYTWLEEFTPKQKWLGGFKQDGEPVKSIDGLKSHLKDSFKLIETRDIEFVIRETARKFQHSVAQMSIWEKI
[3]
  Km: 585.1 ± 28.0 µM
  kcat: 589.0 ± 3.5 min^–1
[4]
  Km: 61.9 ± 3.5 µM
  kcat: 127.2 ± 1.5 min^–1
[5]
  Km: 278.6 ± 9.0 µM
  kcat: 589.0 ± 3.5 min^–1
  kcat/Km: 35000 ± 1500 M⁻¹ s⁻¹
